Source: PMC2907309

Target: MazF (E. coli) (UniProt P0AE70)
Sequence of UniProt P0AE70 (P0AE70 whole entry): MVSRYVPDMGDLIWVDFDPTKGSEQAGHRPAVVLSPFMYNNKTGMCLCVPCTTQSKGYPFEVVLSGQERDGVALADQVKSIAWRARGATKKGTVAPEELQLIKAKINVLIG

His-MazE (from UniProt P0AE72 1-82) (natural protein)
recovery of Luc production (end-point) in a cell-free reaction made of MazF crude extract, against the concentration of pure MazE added: 0.6 µM
recovery of deGFP production (end-point) in a cell-free reaction made of MazF crude extract, against the concentration of pure MazE added: 0.4 µM
